Tested on: peptide library, one residue held at a place counted from the S/T acceptor
Test: relative phosphorylation of the sub-library (ratio to the mean residue at this position); higher = residue favoured
Conditions: human
Summary of the method: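 Purified recombinant kinases were reacted in 384-well plates with biotinylated degenerate peptide sub-libraries, each having one residue fixed at one position around a central Ser/Thr. The reaction mix contained 50 μM peptide plus 50 μM ATP spiked with γ-32P-ATP and ran for 90 min under kinase-specific conditions. Relative sub-library phosphorylation, taken from densitometry of phosphorimaged streptavidin membrane spots, is a ratio to the mean residue at that position.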

Chain of NEK8, construct: aa1-322 (Q86SG6 1-322, looked up): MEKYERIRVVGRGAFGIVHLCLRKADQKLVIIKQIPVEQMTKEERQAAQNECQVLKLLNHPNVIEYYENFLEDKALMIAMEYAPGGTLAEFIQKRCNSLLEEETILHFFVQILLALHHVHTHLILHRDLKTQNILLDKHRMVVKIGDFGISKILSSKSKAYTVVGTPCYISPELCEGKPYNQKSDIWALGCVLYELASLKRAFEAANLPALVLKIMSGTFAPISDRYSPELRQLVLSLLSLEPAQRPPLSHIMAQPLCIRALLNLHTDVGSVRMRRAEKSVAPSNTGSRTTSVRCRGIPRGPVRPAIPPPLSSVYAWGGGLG
Chain of MYLK2, construct: Full length (Q9H1R3 whole entry, looked up): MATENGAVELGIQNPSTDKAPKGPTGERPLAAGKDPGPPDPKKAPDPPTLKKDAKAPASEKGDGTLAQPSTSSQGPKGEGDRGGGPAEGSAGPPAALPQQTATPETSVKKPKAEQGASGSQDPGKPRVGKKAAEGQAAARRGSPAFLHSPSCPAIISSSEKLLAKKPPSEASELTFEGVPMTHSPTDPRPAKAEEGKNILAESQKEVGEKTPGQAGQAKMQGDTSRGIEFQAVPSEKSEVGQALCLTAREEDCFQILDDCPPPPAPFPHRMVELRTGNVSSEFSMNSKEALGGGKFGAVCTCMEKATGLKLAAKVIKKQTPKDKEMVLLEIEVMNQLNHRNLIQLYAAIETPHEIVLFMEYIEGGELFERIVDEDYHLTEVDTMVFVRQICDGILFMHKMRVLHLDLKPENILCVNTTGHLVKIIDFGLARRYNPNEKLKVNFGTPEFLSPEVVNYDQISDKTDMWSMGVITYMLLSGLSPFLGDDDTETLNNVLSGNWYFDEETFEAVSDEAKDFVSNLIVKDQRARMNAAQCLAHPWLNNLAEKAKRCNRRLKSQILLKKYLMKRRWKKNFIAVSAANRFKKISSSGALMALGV

MYLK2, construct: Full length (from UniProt Q9H1R3)
relative phosphorylation
Conditions | at +1 | at +2 | at +3 | at +4 | at -1 | at -2 | at -3 | at -4 | at -5
A fixed | 1.17 | 0.898 | 0.72 | 1.02 | 1 | 1.55 | 0.879 | 1.34 | 1.37
D fixed | 0.541 | 0.852 | 1.08 | 1.07 | 0.654 | 0.423 | 0.467 | 0.847 | 0.683
E fixed | 0.705 | 1.5 | 0.72 | 1.38 | 0.659 | 0.454 | 0.605 | 1.03 | 0.644
F fixed | 0.621 | 1.42 | 1.62 | 0.804 | 0.486 | 0.461 | 0.464 | 0.852 | 0.932
G fixed | 1.19 | 0.696 | 1.03 | 0.936 | 0.922 | 1.37 | 1.45 | 1.46 | 1.5
H fixed | 0.988 | 1.02 | 0.825 | 0.938 | 1.49 | 1.08 | 1.02 | 0.942 | 1.1
I fixed | 0.784 | 1.28 | 1.37 | 1.36 | 0.556 | 0.471 | 0.412 | 0.639 | 0.657
K fixed | 1.5 | 0.664 | 0.482 | 0.898 | 1.89 | 1.44 | 2.17 | 1.03 | 1.19
L fixed | 0.785 | 1.15 | 2.01 | 1.17 | 0.885 | 0.461 | 0.421 | 0.702 | 0.723
M fixed | 1.27 | 1.06 | 1.13 | 0.925 | 0.891 | 0.512 | 0.474 | 0.836 | 0.739
N fixed | 0.945 | 0.783 | 0.84 | 0.736 | 1.41 | 0.819 | 0.85 | 0.894 | 0.884
P fixed | 0.323 | 0.785 | 0.8 | 1.36 | 1.37 | 1 | 1.35 | 1.53 | 1.62
Q fixed | 1.81 | 0.757 | 0.557 | 0.973 | 1.35 | 0.806 | 0.894 | 1.01 | 0.834
R fixed | 1.68 | 0.575 | 0.525 | 0.58 | 1.13 | 4.52 | 3.77 | 1.28 | 0.929
V fixed | 1.07 | 1.21 | 0.919 | 1.23 | 0.688 | 0.558 | 0.477 | 0.753 | 0.853
W fixed | 0.902 | 1.31 | 1.6 | 0.903 | 0.658 | 0.527 | 0.691 | 1.01 | 1.25
Y fixed | 0.721 | 1.04 | 0.78 | 0.715 | 0.958 | 0.529 | 0.6 | 0.843 | 1.08
pThr fixed | 1.71 | 1.59 | 0.794 | 1.43 | 0.612 | 0.958 | 0.847 | 1.05 | 1.06
pTyr fixed | 0.726 | 1.47 | 0.977 | 1.37 | 0.886 | 0.674 | 0.819 | 0.934 | 0.84

NEK8, construct: aa1-322 (from UniProt Q86SG6)
relative phosphorylation
Conditions | at +1 | at +2 | at +3 | at +4 | at -1 | at -2 | at -3 | at -4 | at -5
A fixed | 0.671 | 0.695 | 0.727 | 0.752 | 0.875 | 0.751 | 0.814 | 0.847 | 0.971
D fixed | 0.407 | 0.332 | 0.655 | 0.562 | 1.08 | 1.53 | 0.918 | 1.68 | 1.61
E fixed | 0.37 | 0.28 | 0.459 | 0.527 | 1.16 | 1.09 | 0.764 | 1.25 | 1.09
F fixed | 1.97 | 1.12 | 1.7 | 1.11 | 0.777 | 0.882 | 0.995 | 0.89 | 1.02
G fixed | 0.654 | 0.656 | 0.992 | 0.944 | 0.602 | 1.09 | 0.975 | 0.936 | 1.05
H fixed | 1 | 1.01 | 1.16 | 0.97 | 0.967 | 0.963 | 1.05 | 0.983 | 1.04
I fixed | 0.826 | 0.761 | 0.74 | 0.815 | 0.555 | 0.679 | 0.69 | 0.606 | 0.658
K fixed | 0.933 | 2.05 | 1.4 | 1.81 | 1.5 | 0.755 | 0.799 | 0.918 | 1.08
L fixed | 1.06 | 0.845 | 1.04 | 0.978 | 1.11 | 1.25 | 1.56 | 0.792 | 0.771
M fixed | 2.03 | 0.89 | 0.95 | 0.97 | 1.36 | 0.959 | 1.52 | 0.858 | 0.76
N fixed | 0.945 | 0.841 | 1.05 | 1.02 | 1.11 | 1 | 0.837 | 1.09 | 1.06
P fixed | 0.239 | 0.525 | 0.826 | 1.32 | 0.433 | 0.485 | 0.878 | 0.926 | 1.11
Q fixed | 1.33 | 0.836 | 0.861 | 1.12 | 1.34 | 0.75 | 0.924 | 0.839 | 0.935
R fixed | 1.34 | 3.13 | 1.54 | 1.54 | 1.72 | 1.59 | 1.84 | 0.966 | 0.956
V fixed | 0.7 | 0.798 | 0.628 | 0.66 | 0.63 | 0.625 | 0.465 | 0.597 | 0.712
W fixed | 1.29 | 0.948 | 1.26 | 1.03 | 0.775 | 1.33 | 1.05 | 2.01 | 1.3
Y fixed | 1.24 | 1.28 | 1.02 | 0.86 | 0.999 | 1.26 | 0.924 | 0.805 | 0.871
pThr fixed | 0.717 | 0.574 | 0.612 | 0.672 | 0.593 | 1.01 | 1.17 | 1.13 | 1.4
pTyr fixed | 0.64 | 0.439 | 0.819 | 0.583 | 1.42 | 1.66 | 1.3 | 1.05 | 1.38

Source: the supplement of paper PMC9876800
